Laboratory results from patent publication US20220127328A1 (FATE THERAPEUTICS, published 2022).
Each block holds one binder with its values, some of them ahead of it.

Target: T1, NKG2C (transgenic, expressed on the surface of iPSC-derived NK cells) (Homo sapiens (Human), UniProt P26717 1-231)
T1 construct: After 2A cleavage a C-terminal 2A remnant may stay on the chain; also called transgenic NKG2C
Assay: FACS of surface NKG2C on iNK cells from the NKG2C only iPSC line; pairing inferred from surface expression
From the text: After the engineering step, iPSCs were sorted for the desired phenotype. […] Engineered iPSCs were differentiated into CD34+ hematopoietic progenitor cells and subsequently differentiated into CD56+ NK cells (iNK cells) using a stepwise differentiation and expansion strategy. Surface NKG2C expression was low on unmodified iNK cells (about 5-10%) as determined by FACS.

T1 sequence (P26717 whole entry): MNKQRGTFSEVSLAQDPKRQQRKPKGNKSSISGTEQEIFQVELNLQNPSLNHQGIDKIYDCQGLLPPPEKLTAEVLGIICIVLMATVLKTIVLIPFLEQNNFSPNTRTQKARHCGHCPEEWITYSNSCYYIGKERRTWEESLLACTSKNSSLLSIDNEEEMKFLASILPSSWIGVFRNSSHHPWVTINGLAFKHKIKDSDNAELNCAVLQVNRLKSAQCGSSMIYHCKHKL

binding result: binds
B1: endogenous DAP12 (other, human, UniProt O43914 22-113, looked up)
chain: LRPVQAQAQSDCSCSTVSPGVLAGIVMGDLVLTVLIALAVYFLGRLVPRGRGAAEAATRKQRITETESPYQELQGQRSDVYSDLNTQRPYYK
notes: whole, on cells

binding result: binds
B2: endogenous CD94 (receptor, human, UniProt Q13241 1-179, looked up)
chain: MAVFKTTLWRLISGTLGIICLSLMSTLGILLKNSFTKLSIEPAFTPGPNIELQKDSDCCSCQEKWVGYRCNCYFISSEQKTWNESRHLCASQKSSLLQLQNTDELDFMSSSQQFYWIGLSYSEEHTAWLWENGSALSQYLFPSFETFNTKNCIAYNPNGNALDESCEDKNRYICKQQLI
notes: whole, on cells
